According to US20260159606A1 (VIB VZW, published 2026):
Numbering of substitutions follows the chain as printed.

B1: humanized A2R3-59-59 bivalent construct version 1 (VHH)
chain: DVQLVESGGGLVQPGGSLRLSCAASGSISGINGMGWYRQAPGKQRELVAAITSGGSTNYADSVKGRFTISRDNAKNTVYLQMNSLRPEDTAVYYCYVSSTPSWGLYDDYWGQGTLVTVSSGGGGSGGGGSGGGGSEVQLVESGGGLVQPGGSLRLSCAASGSISGINGMGWYRQAPGKQRELVAAITSGGSTNYADSVKGRFTISRDNAKNTVYLQMNSLRPEDTAVYYCYVSSTPSWGLYDDYWGQGTLVTVSS
notes: also called A2R3-h59-59
B2: VHH A2R3-60 (VHH)
VHH: QVQLQESGGGLVQPGGSLRLDCAASGTTVSINGMGWYRQAPGKQREFVALSTTGGVTNYADSVKGRFTISMDNAKKTVALQMNSLKPEDTAVYYCNAVASPSWGLYDDYWGQGTQVTVSS
notes: also called 2AR3-60
B3: bivalent VHH A2R3-60-60 (VHH)
chain: QVQLQESGGGLVQPGGSLRLDCAASGTTVSINGMGWYRQAPGKQREFVALSTTGGVTNYADSVKGRFTISMDNAKKTVALQMNSLKPEDTAVYYCNAVASPSWGLYDDYWGQGTQVTVSSGGGGSGGGGSGGGGSQVQLQESGGGLVQPGGSLRLDCAASGTTVSINGMGWYRQAPGKQREFVALSTTGGVTNYADSVKGRFTISMDNAKKTVALQMNSLKPEDTAVYYCNAVASPSWGLYDDYWGQGTQVTVSS
notes: also called bivalent A2R3-60
B4: humanized A2R3-60-Fc construct version 1 (Fc fusion)
chain: DVQLVESGGGLVQPGGSLRLSCAASGTTVSINGMGWYRQAPGKQREFVALSTTGGVTNYADSVKGRFTISRDNAKNTVYLQMNSLRPEDTAVYYCNAVASPSWGLYDDYWGQGTLVTVSSGGGGSGGGGSDKTHTCPPCPAPEAAGGPSVFLFPPKPKDTLMISRTPEVTCVVVDVSHEDPEVKFNWYVDGVEVHNAKTKPREEQYNSTYRVVSVLTVLHQDWLNGKEYKCKVSNKALGAPIEKTISKAKGQPREPQVYTLPPSRDELTKNQVSLTCLVKGFYPSDIAVEWESNGQPENNYKTTPPVLDSDGSFFLYSKLTVDKSRWQQGNVFSCSVMHEALHNHYTQKSLSLSPG
notes: also called A2R3-h60-Fc; h60-Fc
B5: humanized A2R3-59-Fc construct version 1 (Fc fusion)
chain: DVQLVESGGGLVQPGGSLRLSCAASGSISGINGMGWYRQAPGKQRELVAAITSGGSTNYADSVKGRFTISRDNAKNTVYLQMNSLRPEDTAVYYCYVSSTPSWGLYDDYWGQGTLVTVSSGGGGSGGGGSDKTHTCPPCPAPEAAGGPSVFLFPPKPKDTLMISRTPEVTCVVVDVSHEDPEVKFNWYVDGVEVHNAKTKPREEQYNSTYRVVSVLTVLHQDWLNGKEYKCKVSNKALGAPIEKTISKAKGQPREPQVYTLPPSRDELTKNQVSLTCLVKGFYPSDIAVEWESNGQPENNYKTTPPVLDSDGSFFLYSKLTVDKSRWQQGNVFSCSVMHEALHNHYTQKSLSLSPG
notes: also called h59-Fc; A2R3-h59-Fc
B6: VHH A2R3-57 (VHH)
VHH: QVQLQESGGGLVQPGGSLRLSCAASGSIFSTDAMGWYRQPPGKQRELVATITSGGSTNYVDSVKGRFTISRDNAKNTVYLQMNSLKPEDTAVYYCALHQTTGWGLYNDYWGQGTQVTVSS
notes: also called 2AR-57
B7: bivalent VHH A2R3-57-57 (VHH)
chain: QVQLQESGGGLVQPGGSLRLSCAASGSIFSTDAMGWYRQPPGKQRELVATITSGGSTNYVDSVKGRFTISRDNAKNTVYLQMNSLKPEDTAVYYCALHQTTGWGLYNDYWGQGTQVTVSSGGGGSGGGGSGGGGSQVQLQESGGGLVQPGGSLRLSCAASGSIFSTDAMGWYRQPPGKQRELVATITSGGSTNYVDSVKGRFTISRDNAKNTVYLQMNSLKPEDTAVYYCALHQTTGWGLYNDYWGQGTQVTVSS
notes: also called bivalent A2R3-57
B8: VHH A2R3-59 (VHH)
VHH: QVQLQESGGGLVQPGGSLRLSCAASGSISGINGMGWYRQAPGKQRELVAAITSGGSTNYADSVKGRFTISRDNAKNTVDLQMNSLQPEDTAVYYCYVSSTPSWGLYDDYWGQGTQVTVSS
notes: also called 2AR3-59
B9: humanized A2R3-60-60 bivalent construct version 1 (VHH)
chain: DVQLVESGGGLVQPGGSLRLSCAASGTTVSINGMGWYRQAPGKQREFVALSTTGGVTNYADSVKGRFTISRDNAKNTVYLQMNSLRPEDTAVYYCNAVASPSWGLYDDYWGQGTLVTVSSGGGGSGGGGSGGGGSEVQLVESGGGLVQPGGSLRLSCAASGTTVSINGMGWYRQAPGKQREFVALSTTGGVTNYADSVKGRFTISRDNAKNTVYLQMNSLRPEDTAVYYCNAVASPSWGLYDDYWGQGTLVTVSS
notes: also called A2R3-h60-60
B10: bivalent VHH A2R3-55 (VHH)
chain: QVQLQESGGGLVQAGGSLRLSCAASGSIDRIDAMGWSRQAPGKQRELVATITTGGITNYAVSVKGRFTISRDNAKNTVYLQMNSLKPEDTAVYYCNAQGAPSWGLYEDYWGQGTQVTVSSGGGGSGGGGSGGGGSQVQLQESGGGLVQAGGSLRLSCAASGSIDRIDAMGWSRQAPGKQRELVATITTGGITNYAVSVKGRFTISRDNAKNTVYLQMNSLKPEDTAVYYCNAQGAPSWGLYEDYWGQGTQVTVSS
notes: also called bivalent A2R3-55

Experiments:
[1] = target: T1, hPIV-3 hemagglutinin-neuraminidase (HN), expressed on transfected HEK293T cells (human parainfluenza virus 3 (hPIV-3), UniProt P08492 1-572); test: flow cytometry on transfected HEK293T cells, 10 µg/ml (FIG. 16A)
T1 construct: also called hPIV-3 HN; HN3
T1 chain: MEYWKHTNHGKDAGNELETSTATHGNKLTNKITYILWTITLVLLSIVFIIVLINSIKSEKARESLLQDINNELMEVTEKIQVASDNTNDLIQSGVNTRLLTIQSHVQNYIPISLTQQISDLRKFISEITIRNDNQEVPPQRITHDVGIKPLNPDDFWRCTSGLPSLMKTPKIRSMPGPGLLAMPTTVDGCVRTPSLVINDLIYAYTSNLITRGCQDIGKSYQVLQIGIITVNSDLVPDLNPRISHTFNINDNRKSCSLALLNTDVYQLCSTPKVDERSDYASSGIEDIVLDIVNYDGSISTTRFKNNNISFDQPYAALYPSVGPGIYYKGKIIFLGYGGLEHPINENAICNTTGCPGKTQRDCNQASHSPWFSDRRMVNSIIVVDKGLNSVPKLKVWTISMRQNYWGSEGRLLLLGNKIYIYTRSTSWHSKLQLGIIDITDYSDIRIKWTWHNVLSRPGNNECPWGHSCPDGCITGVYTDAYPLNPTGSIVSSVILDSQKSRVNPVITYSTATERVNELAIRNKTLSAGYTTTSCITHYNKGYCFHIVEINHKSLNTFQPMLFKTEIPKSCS

[2] = target: T2, D275N- and R277T-mutant hPIV-3 HN, expressed on transfected HEK293T cells (human parainfluenza virus 3 (hPIV-3), UniProt P08492 1-572); test: flow cytometry on transfected HEK293T cells, VHH 1 or 0.1 µg/ml (FIG. 11C)
T2 construct: also called mut HN3
T2 chain: T1 chain with D275N, R277T

[3] = target: T1, hPIV-3 hemagglutinin-neuraminidase …
[4] = target: T3, hPIV-3 fusion protein (F), expressed on transfected HEK293T cells (human parainfluenza virus 3 (hPIV-3), UniProt P06828 19-539); test: flow cytometry on transfected HEK293T cells (FIG. 4)
T3 construct: whole, on cells

[5] = target: T4, recombinant hPIV-1 HN-tetraGCN4 (human parainfluenza virus 1 (hPIV-1), UniProt P16071 138-575); test: ELISA, HN protein coated (50 ng), 1/3 dilution series (FIG. 18)
T4 construct: domain: head domain; also called hPIV-1 HN linked to tetraGCN4; not shown: strep-tag II

[6] = target: T5, recombinant hPIV-3 HN-dGCN4 (human parainfluenza virus 3 (hPIV-3), UniProt P08492 136-572); test: as above
T5 construct: domain: head domain; also called hPIV-3 HN linked to dGCN4; not shown: strep-tag II

[7] = target: T6, recombinant hPIV-1 HN-dGCN4 (human parainfluenza virus 1 (hPIV-1), UniProt P16071 138-575); test: as above
T6 construct: domain: head domain; also called hPIV-1 HN linked to dGCN4; not shown: strep-tag II

[8] = target: HN of hPIV-3-GFP virus (on virions and on hPIV-3-infected cells) (human parainfluenza virus 3 (hPIV-3), UniProt P08492 1-572); test: cell-based or functional assay
[9] = target: T2, D275N- and R277T-mutant hPIV-3 HN, …; test: flow cytometry on transfected HEK293T cells (FIG. 11C)

| Binder | binding result [1] | binding result [2] | fold reduction of binding at 500 µg/ml of zanamivir [3] | binding result [4] | fold higher potency of hPIV-3-GFP neutralization than the monovalent counterpart [8] | binding result [9] | also measured |
| --- | --- | --- | --- | --- | --- | --- | --- |
| B1 | binds |  |  |  |  |  |  |
| B2 |  | binds | 1.5 fold | no binding (tested: 1 µg/ml) |  |  |  |
| B3 | binds | binds |  |  | ~7.5 fold |  | EC50 [5]: 50 µg/mL; EC50 [6]: 0.02 µg/mL; EC50 [7]: 167 µg/mL |
| B4 | binds |  |  |  |  |  | EC50 [5]: 71 µg/mL; EC50 [6]: 0.018 µg/mL; EC50 [7]: 32 µg/mL |
| B5 | binds |  |  |  |  |  |  |
| B6 |  |  | ~5 fold | no binding (tested: 1 µg/ml) |  | no binding (tested: 1 or 0.1 µg/ml) |  |
| B7 |  |  |  |  | ~150 fold | no binding (tested: 1 or 0.1 µg/ml) |  |
| B8 |  | binds | 2.4 fold | no binding (tested: 1 µg/ml) |  |  |  |
| B9 | binds |  |  |  |  |  |  |
| B10 |  |  |  |  | ~50 fold | no binding (tested: 1 or 0.1 µg/ml) |  |
